B1: Protein maelstrom homolog, residues 3 to 71; numbered along this chain, Q96JY0 (parent)
chain: NRKASRNAYYFFVQEKIPELRRRGLPVARVADAIPYCSSDWALLREEEKEKYAEMAREWRAAQGKDPGP

From the Human Domainome abundance scans (Beltran et al. 2025) come the findings set out here.

± gives the uncertainty stated by the source.

This series covers variants of B1. Put plainly: abundance fitness (aPCA) (normalised: wild type 0, dead -1); higher = more abundant; growth selection in yeast, the domain comes from the species named. The following applies: Homo sapiens.
For the variant NRKASRNAYYFFVQEKIPELRRRGLPVARVADAIPYCSSDWALMREEEKEKYAEMAREWRAAQGKDPGP [L44M], the abundance fitness is -0.38 ± 0.13.
As for NRKASRNAYYFFVQEKIPELRRRGLPVARVADAIPYCSSDWALAREEEKEKYAEMAREWRAAQGKDPGP [L44A], the abundance fitness is -0.254 ± 0.048.
With NRKASRNAYYFFVQEKIPELRRRGLPVARVADAIPYCSSDWALPREEEKEKYAEMAREWRAAQGKDPGP [L44P], the abundance fitness is -0.751 ± 0.14.
Regarding NRKASRNAYYFFVQEKIPELRRRGLPVARVADAIPYCSSDWALEREEEKEKYAEMAREWRAAQGKDPGP [L44E], the abundance fitness is -0.421 ± 0.14.
The value for NRKASRNAYYFFVQEKIPELRRRGLPVARVADAIPYCSSDWALDREEEKEKYAEMAREWRAAQGKDPGP [L44D] was -0.553 ± 0.23.
Regarding NRKASRNAYYFFVQEKIPELRRRGLPVARVADAIPYCSSDWALIREEEKEKYAEMAREWRAAQGKDPGP [L44I], the abundance fitness is -0.482 ± 0.21.
With NRKASRNAYYFFVQEKIPELRRRGLPVARVADAIPYCSSDWALVREEEKEKYAEMAREWRAAQGKDPGP [L44V], the abundance fitness is -0.156 ± 0.069.
In the case of NRKASRNAYYFFVQEKIPELRRRGLPVARVADAIPYCSSDWALSREEEKEKYAEMAREWRAAQGKDPGP [L44S] it was -0.205 ± 0.067; in that of NRKASRNAYYFFVQEKIPELRRRGLPVARVADAIPYCSSDWALHREEEKEKYAEMAREWRAAQGKDPGP [L44H], -1 ± 0.32; in that of NRKASRNAYYFFVQEKIPELRRRGLPVARVADAIPYCSSDWALKREEEKEKYAEMAREWRAAQGKDPGP [L44K], -0.568 ± 0.28.
The value for NRKASRNAYYFFVQEKIPELRRRGLPVARVADAIPYCSSDWALGREEEKEKYAEMAREWRAAQGKDPGP [L44G] was -0.864 ± 0.17.
Turning to NRKASRNAYYFFVQEKIPELRRRGLPVARVADAIPYCSSDWALFREEEKEKYAEMAREWRAAQGKDPGP [L44F], the abundance fitness was -0.443 ± 0.18.
In the case of NRKASRNAYYFFVQEKIPELRRRGLPVARVADAIPYCSSDWALTREEEKEKYAEMAREWRAAQGKDPGP [L44T] it was -0.227 ± 0.051; in that of NRKASRNAYYFFVQEKIPELRRRGLPVARVADAIPYCSSDWALCREEEKEKYAEMAREWRAAQGKDPGP [L44C], -0.343 ± 0.17; in that of NRKASRNAYYFFVQEKIPELRRRGLPVARVADAIPYCSSDWALRREEEKEKYAEMAREWRAAQGKDPGP [L44R], -0.802 ± 0.091.
In the case of NRKASRNAYYFFVQEKIPELRRRGLPVARVADAIPYCSSDWALQREEEKEKYAEMAREWRAAQGKDPGP [L44Q] it was -0.168 ± 0.15.
In the case of NRKASRNAYYFFVQEKIPELRRRGLPVARVADAIPYCSSDGALLREEEKEKYAEMAREWRAAQGKDPGP [W41G] it was -0.784 ± 0.055.
For NRKASRNAYYFFVQEKIPELRRRGLPVARVADAIPYCSSDSALLREEEKEKYAEMAREWRAAQGKDPGP [W41S], the abundance fitness is -0.888 ± 0.069.
As to NRKASRNAYYFFVQEKIPELRRRGLPVARVADAIPYCSSDMALLREEEKEKYAEMAREWRAAQGKDPGP [W41M], the abundance fitness was -0.886 ± 0.21.
As for NRKASRNAYYFFVQEKIPELRRRGLPVARVADAIPYCSSDTALLREEEKEKYAEMAREWRAAQGKDPGP [W41T], the abundance fitness was -0.682 ± 0.11.
In the case of NRKASRNAYYFFVQEKIPELRRRGLPVARVADAIPYCSSDEALLREEEKEKYAEMAREWRAAQGKDPGP [W41E] it was -0.813 ± 0.1.
NRKASRNAYYFFVQEKIPELRRRGLPVARVADAIPYCSSDPALLREEEKEKYAEMAREWRAAQGKDPGP [W41P]: the abundance fitness was -0.572 ± 0.1.
In the case of NRKASRNAYYFFVQEKIPELRRRGLPVARVADAIPYCSSDQALLREEEKEKYAEMAREWRAAQGKDPGP [W41Q] it was -1.1 ± 0.2.
Regarding NRKASRNAYYFFVQEKIPELRRRGLPVARVADAIPYCSSDHALLREEEKEKYAEMAREWRAAQGKDPGP [W41H], the abundance fitness was -1.1 ± 0.23.
The value for NRKASRNAYYFFVQEKIPELRRRGLPVARVADAIPYCSSDRALLREEEKEKYAEMAREWRAAQGKDPGP [W41R] was -0.572 ± 0.054.
In the case of NRKASRNAYYFFVQEKIPELRRRGLPVARVADAIPYCSSDVALLREEEKEKYAEMAREWRAAQGKDPGP [W41V] it was -0.682 ± 0.071.
As for NRKASRNAYYFFVQEKIPELRRRGLPVARVADAIPYCSSDKALLREEEKEKYAEMAREWRAAQGKDPGP [W41K], the abundance fitness is -0.622 ± 0.078.
In the case of NRKASRNAYYFFVQEKIPELRRRGLPVARVADAIPYCSSDFALLREEEKEKYAEMAREWRAAQGKDPGP [W41F] it was -0.284 ± 0.17; in that of NRKASRNAYYFFVQEKIPELRRRGLPVARVADAIPYCSSDYALLREEEKEKYAEMAREWRAAQGKDPGP [W41Y], -0.394 ± 0.14; in that of NRKASRNAYYFFVQEKIPELRRRGLPVARVADAIPYCSSDIALLREEEKEKYAEMAREWRAAQGKDPGP [W41I], -0.968 ± 0.3.
NRKASRNAYYFFVQEKIPELRRRGLPVARVADAIPYCSSDNALLREEEKEKYAEMAREWRAAQGKDPGP [W41N]: the abundance fitness was -0.706 ± 0.19.
In the case of NRKASRNAYYFFVQEKIPELRRRGLPVARVADAIPYCSSDLALLREEEKEKYAEMAREWRAAQGKDPGP [W41L] it was -0.941 ± 0.086.
The value for NRKASRNAYYFFVQEKIPELRRRGLPVARVADAIPYCSSDAALLREEEKEKYAEMAREWRAAQGKDPGP [W41A] was -0.553 ± 0.075; that for NRKASRNAYYFFVQEKIPELRRRGLPVARVADAIPYCSSDWAVLREEEKEKYAEMAREWRAAQGKDPGP [L43V] was 0.006 ± 0.035; that for NRKASRNAYYFFVQEKIPELRRRGLPVARVADAIPYCSSDWAELREEEKEKYAEMAREWRAAQGKDPGP [L43E] was 0.102 ± 0.05.
As to NRKASRNAYYFFVQEKIPELRRRGLPVARVADAIPYCSSDWAHLREEEKEKYAEMAREWRAAQGKDPGP [L43H], the abundance fitness is 0.078 ± 0.16.
In the case of NRKASRNAYYFFVQEKIPELRRRGLPVARVADAIPYCSSDWANLREEEKEKYAEMAREWRAAQGKDPGP [L43N] it was 0.252 ± 0.21.
The value for NRKASRNAYYFFVQEKIPELRRRGLPVARVADAIPYCSSDWAYLREEEKEKYAEMAREWRAAQGKDPGP [L43Y] was 0.086 ± 0.14; that for NRKASRNAYYFFVQEKIPELRRRGLPVARVADAIPYCSSDWAQLREEEKEKYAEMAREWRAAQGKDPGP [L43Q] was 0.151 ± 0.074.
